The values below come from article PMC8187361, “Nanoscale architecture of a VAP-A-OSBP tethering complex at membrane contact sites” (Nature Communications, 2021).

Sequences and labels used below:
B1: OSBP CC[G324C] (C224A/C276A/G324C) (domain or fragment, UniProt P22059 199-324, looked up)
chain: VSQTDKTELQNTLRTLSSKVEDLSTANDLIAKHGTALQRSLSELESLKLPAESNEKIKQVNERATLFRITSNAMINAARDFLMLAQTHSKKWQKSLQYERDQRIRLEETLEQLAKQHNHLERAFRC
modifications: AF-488, AF-568 or both dyes on the introduced cysteine C324 in the FRET experiments; unlabelled in gel filtration
notes: Cloned via BamH1/Xma1 into pGEX-4T2; source: E. coli Bl21gold, purified (Glutathione-Sepharose, thrombin, MonoS, Superose 12)
B2: OSBP Central Core (CC), wild type (domain or fragment, UniProt P22059 199-324, looked up)
chain: B1 chain with A26C, A78C, C126G
notes: The methods describe cloning (pGEX-4T2, GST tag, thrombin cleavage) and purification only for the cysteine mutants; also called OSBP CC; source: E. coli, purified
B3: VAP-A (natural protein, human, UniProt Q9P0L0 8-249, looked up)
chain: MAKHEQILVLDPPTDLKFKGPFTDVVTTNLKLRNPSDRKVCFKVKTTAPRRYCVRPNSGIIDPGSTVTVSVMLQPFDYDPNEKSKHKFMVQTIFAPPNTSDMEAVWKEAKPDELMDSKLRCVFEMPNENDKLNDMEPSKAVPLNASKQDGPMPKPHSVSLNDTETRKLMEECKRLQGEMMKLSEENRHLRDEGLRLRKVAHSDKPGSTSTASFRDNVTSPLPSLLVVIAAIFIGFFLGKFIL
notes: VAP-A, human, Q9P0L0, fragment 8-249 with its C-terminal transmembrane helix; The methods give the fragment 8-249 and the results say full-length; Both tags were removed with TEV protease before size exclusion chromatography; also called full-length VAP-A; human VAP-A; source: E. coli C41 (DE3), membranes solubilised in DDM, purified (Strep-Tactin, TEV, Superdex 200); reconstituted in egg …
B4: N-PH-FFAT (domain or fragment, UniProt P22059 1-408, looked up)
chain: MAATELRGVVGPGPAAIAALGGGGAGPPVVGGGGGRGDAGPGSGAASGTVVAAAAGGPGPGAGGVAAAGPAPAPPTGGSGGSGAGGSGSAREGWLFKWTNYIKGYQRRWFVLSNGLLSYYRSKAEMRHTCRGTINLATANITVEDSCNFIISNGGAQTYHLKASSEVERQRWVTALELAKAKAVKMLAESDESGDEESVSQTDKTELQNTLRTLSSKVEDLSTCNDLIAKHGTALQRSLSELESLKLPAESNEKIKQVNERATLFRITSNAMINACRDFLMLAQTHSKKWQKSLQYERDQRIRLEETLEQLAKQHNHLERAFRGATVLPANTPGNVGSGKDQCCSGKGDMSDEDDENEFFDAPEIITMPENLGHKRTGSNISGASSDISLDEQYKHQLEETKKEKRTR
notes: OSBP residues 1-408 (N-terminal region, PH domain, central core, FFAT motif), lacking the ORD; also called 1-408-OSBP; NH-FFAT

The target of one data set is OSBP FFAT (Homo sapiens) (UniProt P22059). Particulars: cited from earlier work.
Data set [1] deals with the molecule itself. Kind of data set: SEC; analytical gel filtration, Superdex 75, 100 ul of 10 uM protein, 25 mM Tris pH 7.5, 120 mM NaCl, 1 mM DTT; Stokes radius against MW of standards.
Data set [2] concerns the molecule itself. Put plainly: SDS-PAGE without heating; purified VAP-A in DDM, with reducing agents; bands at ~55 kDa and ~25 kDa, a single band when the samples were heated.
The data set “N-PH-FFAT” addresses B4. Put plainly: membrane tethering seen by cryo-EM and cryo-ET; N-PH-FFAT or OSBP bound to GalCer/PI4P tubes (70 lipids/protein mol/mol), VAP-A proteoliposomes added (2 min incubation, or sequentially on the grid for 30 s), HK buffer, room temperature. The conditions noted are these: both partners purified.
Data set [3] concerns the molecule itself. Kind of data set: cryo-EM structure; cryo-ET with sub-tomogram averaging of contact sites between VAP-A vesicles (LPR 70 mol/mol) and N-PH-FFAT on PI4P tubes; class with 20-25 nm membrane separation; VAP-A and N-PH-FFAT averaged separately.

Residue numbers refer to the chain shown, from its start. Numbers in names are those of the source.

For VAP-A MSP (from UniProt Q9P0L0), the Kd with OSBP FFAT (Homo sapiens) is 2000 nM.

As for B1, in data set [1], the binding result was “binds”.

With B2, the “stoichiometry N” value in data set [1] came to 2. For B3, in data set [2], the “stoichiometry N” value worked out at 2. The binding result in the data set with N-PH-FFAT is recorded as “binds”. In the case of B4, in data set [3], the “stoichiometry N” value amounted to 2.
